The values below come from patent US7662919.

This assay has as its target Flt1/VEGFR1 (human) (UniProt P17948). Description: cell-based or functional assay.
UniProt P17948, sequence (P17948 27-1338): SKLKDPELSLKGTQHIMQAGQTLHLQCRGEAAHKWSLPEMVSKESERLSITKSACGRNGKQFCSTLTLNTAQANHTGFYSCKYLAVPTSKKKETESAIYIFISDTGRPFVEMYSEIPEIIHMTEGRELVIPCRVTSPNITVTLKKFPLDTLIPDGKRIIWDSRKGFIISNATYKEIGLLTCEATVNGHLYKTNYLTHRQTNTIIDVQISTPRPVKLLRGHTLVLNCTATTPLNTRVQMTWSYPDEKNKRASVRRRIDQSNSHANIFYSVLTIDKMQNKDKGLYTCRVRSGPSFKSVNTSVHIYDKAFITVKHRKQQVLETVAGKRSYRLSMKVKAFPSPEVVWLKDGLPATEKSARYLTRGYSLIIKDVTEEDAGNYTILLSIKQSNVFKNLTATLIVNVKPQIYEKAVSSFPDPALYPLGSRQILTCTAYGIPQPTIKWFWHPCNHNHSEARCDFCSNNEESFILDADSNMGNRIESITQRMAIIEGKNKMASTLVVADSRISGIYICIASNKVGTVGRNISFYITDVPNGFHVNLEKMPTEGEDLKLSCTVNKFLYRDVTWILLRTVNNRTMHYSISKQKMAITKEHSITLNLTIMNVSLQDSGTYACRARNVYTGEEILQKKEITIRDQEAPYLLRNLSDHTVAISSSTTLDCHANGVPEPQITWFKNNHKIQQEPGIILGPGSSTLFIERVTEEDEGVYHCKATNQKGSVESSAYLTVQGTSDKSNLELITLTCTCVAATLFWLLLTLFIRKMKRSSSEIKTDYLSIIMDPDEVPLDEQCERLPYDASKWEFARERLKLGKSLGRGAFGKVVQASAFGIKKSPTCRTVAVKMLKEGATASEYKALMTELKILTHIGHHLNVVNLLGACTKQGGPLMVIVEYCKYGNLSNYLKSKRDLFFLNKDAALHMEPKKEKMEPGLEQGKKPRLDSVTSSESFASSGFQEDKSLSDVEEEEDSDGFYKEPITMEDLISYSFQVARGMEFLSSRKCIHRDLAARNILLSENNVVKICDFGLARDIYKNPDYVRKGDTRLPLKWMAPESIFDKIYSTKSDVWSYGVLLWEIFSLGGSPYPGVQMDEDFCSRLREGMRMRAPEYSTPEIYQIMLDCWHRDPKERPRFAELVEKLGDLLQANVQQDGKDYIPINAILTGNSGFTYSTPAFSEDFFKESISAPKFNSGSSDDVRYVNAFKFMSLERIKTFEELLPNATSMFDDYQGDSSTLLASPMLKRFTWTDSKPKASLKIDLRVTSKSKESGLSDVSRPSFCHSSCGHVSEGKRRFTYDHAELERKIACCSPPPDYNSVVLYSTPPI

The substance PlGF (ligand) yielded an HUVEC buds containing multiple filopodia of 250%.
